How the values were obtained:
human CD19 [1] = molecular target: T1, human CD19 (human, UniProt P15391 20-556); test: flow cytometry on CD19-expressing cells (n = 1)
T1 sequence: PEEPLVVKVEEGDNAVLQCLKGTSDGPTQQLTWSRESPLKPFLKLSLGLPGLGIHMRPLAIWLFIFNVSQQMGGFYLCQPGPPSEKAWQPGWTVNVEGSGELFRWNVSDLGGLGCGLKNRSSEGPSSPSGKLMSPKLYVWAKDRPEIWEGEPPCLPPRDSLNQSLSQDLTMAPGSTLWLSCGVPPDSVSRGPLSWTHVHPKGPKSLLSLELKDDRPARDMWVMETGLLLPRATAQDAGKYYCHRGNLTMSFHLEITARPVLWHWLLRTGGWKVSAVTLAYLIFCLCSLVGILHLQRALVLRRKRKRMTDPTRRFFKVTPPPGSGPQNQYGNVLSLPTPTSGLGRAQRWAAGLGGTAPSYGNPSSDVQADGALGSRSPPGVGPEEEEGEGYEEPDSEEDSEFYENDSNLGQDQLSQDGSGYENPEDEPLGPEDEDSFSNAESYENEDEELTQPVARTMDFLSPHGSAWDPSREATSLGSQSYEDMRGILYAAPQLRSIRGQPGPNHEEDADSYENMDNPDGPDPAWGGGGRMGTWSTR
From the text: Various clones were titrated and their binding affinity (EC50) to various CD19-expressing cells assessed by flow cytometry.

human CD19 [2] = molecular target: T1, human CD19; test: flow cytometry, scFv titrated on CD19-expressing K562 cells (FIG. 3A)
human CD19 [3] = molecular target: T1, human CD19; test: flow cytometry, scFv titrated on CD19-expressing K562 cells (FIG. 4, another plate)
human CD19 [4] = molecular target: T1, human CD19; test: flow cytometry on CD19-expressing cells (n = 3)
human CD19 [5] = molecular target: T1, human CD19; test: flow cytometry competition for binding with FMC63 (n = 3)
human CD19 [6] = molecular target: T1, human CD19; test: flow cytometry on CD19-expressing cells (n = 4)
human CD19 [7] = molecular target: T1, human CD19; test: flow cytometry competition for binding with FMC63 (n = 1)
human CD19 [8] = molecular target: T1, human CD19; test: flow cytometry, HIS-tagged scFv bacterial supernatant on CD19-transfected HEK293 cells (FIG. 8B)
From the text: (§1) A third scFv library was generated by shuffling the VH sequences from the selection in (a) with the VL sequences resulting from the selection in (b). […] Binding by the selected scFv clones to CD19-expressing cells was confirmed by flow cytometry using bacterially-produced supernatant. The selected scFv pools were cloned into E. coli expression vectors and produced as HIS-tagged scFvs. Binding of individual clones to CD19-transfected HEK293 cells was detected with anti-HIS-Alexa647 conjugate by flow cytometry.

human CD19 [9] = molecular target: T1, human CD19; test: flow cytometry, HIS-tagged scFv bacterial supernatant on CD19-transfected HEK293 cells (FIG. 8A)
From the text: as §1

human CD19 [10] = molecular target: T1, human CD19; test: flow cytometry competition for binding with FMC63 (n = 2)
human CD19 [11] = molecular target: T1, human CD19; test: flow cytometry, scFv titrated on CD19-expressing K562 cells (FIG. 4, one plate)

B1: Clone 506 scFv (scFv)
scFv: EVQLVESGGGLVQPGRSLRLSCAASGFTFDDYAMHWVRQAPGKGLEWVSGISWNSGRIGYADSVKGRFTISRDNAKNSLFLQMNSLRAEDTAVYYCARDQGYHYYDSAEHAFDIWGQGTMVTVSSGGGGSGGGGSGGGGSQLVLTQPPSVSGSPGQSVTFSCTGASSDVGGYDHVSWYQHHPGKGPKLLIYDVSKRPSGVPDRFSGSKSGNTASLTISGLQAEDEADYYCCSFAGYYTYWLFGGGTKVTVL
notes: Human scFv
- EC50 (human CD19 [1]): 179 nM

B2: Clone 192 scFv (scFv)
scFv: EVQLVESGGGLVQPGRSLRLSCAASGFTFDDYAMHWVRQAPGKGLEWVSGISWNSGRIGYADSVKGRFTISRDNAKNSLFLQMNSLRAEDTAVYYCARDQGYHYYDSAEHAFDIWGQGTMVTVSSGGGGSGGGGSGGGGSQAVLTQPRSVSGSPGQSVTISCTGISSGVDSHRYVSWYQHHPGKAPKLMIYDFSKRPSGVPDRFSGSKSGNTASLTISGLQAEDEADYYCCSYAAISPNYVFGTGTKLTVL
notes: Human scFv
- EC50 (human CD19 [2]): 12.8 nM
- EC50 (human CD19 [3]): 12 nM

B3: Clone 192B scFv (scFv)
scFv: QVQLVESGGGLVQPGRSLRLSCAASGFTFDDYAMHWVRQAPGKGLEWVSGISWNSGRIGYADSVKGRFTISRDNAKNSLFLQMNSLRAEDTAVYYCARDQGYHYYDSAEHAFDIWGQGTMVTVSSGGGGSGGGGSGGGGSQAVLTQPRSVSGSPGQSVTISCTGISSGVDSHRYVSWYQHHPGKAPKLMIYDFSKRPSGVPDRFSGSKSGNTASLTISGLQAEDEADYYCSSYAAISPNYVFGTGTKLTVL
notes: Human scFv
- EC50 (human CD19 [4]): 7.7 nM
- IC50 (human CD19 [5]): 15.7 nM

B4: Clone 328 scFv (scFv)
scFv: QVQLVESGGGLVQPGRSLRLSCAASGFTFDDYAMHWVRQAPGKGLEWVSGISWNSGRIGYADSVKGRFTISRDNAKNSLFLQMNSLRAEDTAVYYCARDQGYHYYDSAEHAFDIWGQGTVVTVSSGGGGSGGGGSGGGGSQSALTQPASVSGSPGHSITISCTGTRSDVGGFDYVSWYQHNPGKAPKLIIYDVTKRPSGVSNRFSGAKSGITASLTISGLQAEDEADYYCTSYRPGPTFVFGTGTKLTVL
notes: Human scFv
- EC50 (human CD19 [6]): 10.9 nM
- IC50 (human CD19 [7]): 32.9 nM

B5: Clone 285 scFv (scFv)
scFv: EVQLVESGGGLVQPGRSLRLSCAASGFTFDDYAMHWVRQAPGKGLEWVSGISWNSGRIGYADSVKGRFTISRDNAKNSLFLQMNSLRAEDTAVYYCARDQGYHYYDSAEHAFDIWGQGTVVTVSSGGGGSGGGGSGGGGSQSALTQPASVSGSPGQSITISCTGTSSDLGGYNYVSWYQHRPGKAPKLIIYDVTVRPSGVSDRFSGSKSGNTASLTISGLQAEDEADYYCGSYTSSSTLLWVFGGGTKLTVL
notes: Human scFv
- EC50 (human CD19 [6]): 2.5 nM
- IC50 (human CD19 [5]): 9.4 nM

B6: Clone 302 scFv (scFv)
scFv: QVQLVESGGGLVQPGRSLRLSCAASGFTFDDYAMHWVRQAPGKGLEWVSGISWNSGRIGYADSVKGRFTISRDNAKNSLFLQMNSLRAEDTAVYYCARDQGYHYYDSAEHAFDIWGQGTVVTVSSGGGGSGGGGSGGGGSQSALTQPASVSGSPGQSITISCTGTSSDLGGYNYVSWYQHRPGKAPKLIIYDVTVRPSGVSDRFSGSKSGNTASLTISGLQAEDEADYYCGSYTSSSTLLWVFGGGTKLTVL
notes: HIS- or FLAG-tagged
- binding result (human CD19 [8]): binds

B7: Clone 336 scFv (scFv)
scFv: QVQLVESGGGLVQPGRSLRLSCAASGFTFDDYAMHWVRQAPGKGLEWVSGISWNSGRIGYADSVKGRFTISRDNAKNSLFLQMNSLRAEDTAVYYCARDQGYHYYDSAEHAFDIWGQGTVVTVSSGGGGSGGGGSGGGGSQSALTQPASVSGSPGQSITISCTGTSSDLGGYNYVSWYQHRPGKAPKLIIYDVTVRPSGVSDRFSGSKSGNTASLTISGLQAEDEADYYCGSYTSSSTLLWVFGGGTKLTVL
notes: HIS- or FLAG-tagged
- binding result (human CD19 [8]): binds

B8: Clone 283 scFv (scFv)
scFv: QVQLVESGGGLVQPGRSLRLSCAASGFTFDDYAMHWVRQAPGKGLEWVSGISWNSGRIGYADSVKGRFTISRDNAKNSLFLQMNSLRAEDTAVYYCARDQGYHYYDSAEHAFDIWGQGTVVTVSSGGGGSGGGGSGGGGSQSALTQPASVSGSPGQSITISCTGTSSDLGGYNYVSWYQHRPGKAPKLIIYDVTVRPSGVSDRFSGSKSGNTASLTISGLQAEDEADYYCGSYTSSSTLLWVFGGGTKLTVL
notes: HIS- or FLAG-tagged
- binding result (human CD19 [9]): binds

B9: Clone 1300 scFv (scFv)
scFv: QMQLVQSGGGLVQPGRSLRLSCAASGFTFDDYAMHWVRQAPGKGLEWVSGISWNSGSIGYADSVKGRFTISRDNAKNSLYLQMNSLRAEDTAVYYCARDQGYHYYDSAEHAFDIWGQGTVVTVSSGGGGSGGGGSGGGGSAIRMTQSPSTLSASVGDRVTITCRASQSISHYLAWYQQKPGKAPKLLIFDASRLASGVPSRFSGSGSGTDFTLTISSLQPEDFATYYCQQSYGAPMFTFGPGTRVDLK
notes: Human scFv
- IC50 (human CD19 [10]): 3.9 nM
- EC50 (human CD19 [4]): 1.3 nM

B10: Clone 227 scFv (scFv)
scFv: EVQLVQSGGGLVQPGRSLRLSCAASGFTFDDYAMHWVRQAPGKGLEWVSGISWNSGSIGYADSVKGRFTISRDNAKNSLYLQMNSLRAEDTAVYYCARDQGYHYYDSAEHAFDIWGQGTVVTVSSGGGGSGGGGSGGGGSDIQLTQSPSTLSASVGDRVTITCRASQSISRWLAWYQQKPGKAPKLLIYDASNLETGVPSRFSGSGSGTDFTFTISSLQPEDIATYYCQQYDNLPLTFGGGTKVEIK
notes: Human scFv
- IC50 (human CD19 [10]): 56.1 nM
- EC50 (human CD19 [4]): 31.8 nM

B11: Clone 272 scFv (scFv)
scFv: EVQLVESGGGLVQPGRSLRLSCAASGFTFDDYAMHWVRQAPGKGLEWVSGISWNSGRIGYADSVKGRFTISRDNAKNSLFLQMNSLRAEDTAVYYCARDQGYHYYDSAEHAFDIWGQGTVVTVSSGGGGSGGGGSGGGGSQSVLTQPPSVSAAPGQKVTISCSGSSSNIGNNYVSWYQQLPGTAPKLLIYDNNKRPSGIPDRFSGSKSGTSATLGITGLQTGDEADYYCGTWDSSLNRDWVFGGGTKLTVL
notes: HIS- or FLAG-tagged
- binding result (human CD19 [9]): binds

B12: Clone 79 scFv (scFv)
scFv: EVQLVESGGGLVQPGRSLRLSCAASGFTFDDYAMHWVRQAPGKGLEWVSGISWNSGRIGYADSVKGRFTISRDNAKNSLFLQMNSLRAEDTAVYYCARDQGYHYYDSAEHAFDIWGQGTVVTVSSGGGGSGGGGSGGGGSQSVLTQPPSVSAAPGQKVTISCSGSSSNIGNNYVSWYQQLPGTAPKLLIYDNNKRPSGIPDRFSGSKSGTSATLGITGLQTGDEGDYYCGTWDISLRFGVFGGGTKVTVL
notes: Human scFv
- EC50 (human CD19 [1]): 65.7 nM
- IC50 (human CD19 [7]): 102 nM

B13: Clone 184 scFv (scFv, V domains shown)
VH: QVQLVESGGGLVQPGRSLRLSCAASGFTFDDYAMHWVRQAPGKGLEWVSGISWNSGRIGYADSVKGRFTISRDNAKNSLFLQMNSLRAEDTAVYYCARDQGYHYYDSAEHAFDIWGQGTMVTVSS
- EC50 (human CD19 [1]): 114 nM
- EC50 (human CD19 [3]): 114 nM

B14: Clone 1 scFv (scFv)
scFv: EVQLVESGGGLVQPGRSLRLSCAASGFTFDDYAMHWVRQAPGKGLEWVSGISWNSGRIGYADSVKGRFTISRDNAKNSLFLQMNSLRAEDTAVYYCARDQGYHYYDSAEHAFDIWGQGTMVTVSSGGGGSGGGGSGGGGSQSALTQPASVSGSPGQSITISCTGTSSDVGAYNFVSWYQQLPGTAPKFLIYDNNKRPPGIPDRFSGSKSGTSATLGITGLQTGDEADYYCATWDSGLSAVVFGGGTKLTVL
notes: Human scFv
- EC50 (human CD19 [11]): 214 nM
- EC50 (human CD19 [1]): 214 nM

B15: Clone 505 scFv (scFv)
scFv: EVQLVESGGGLVQPGRSLRLSCAASGFTFDDYAMHWVRQAPGKGLEWVSGISWNSGRIGYADSVKGRFTISRDNAKNSLFLQMNSLRAEDTAVYYCARDQGYHYYDSAEHAFDIWGQGTMVTVSSQSVLTQPRSLSGSPGQSVTIACTGASTDVGGYNYVSWYQQHPGKAPKLMIYDVNKRPSGVPDRFSGSKSGNTAFLTISGLQAEDEADYYCCSYAGSYTFEVFGGGTKLTVL
- EC50 (human CD19 [1]): 139 nM

Reference: patent US20240018256A1 (JUNO THERAPEUTICS, published 2024)
